Test results published in US20180071366A1.
Values belong to the binder of their own block, whether it stands above or below them. Numbered stars: 1 amine (or outer) side, 2 acyl side, 3 side chain; on linkers, the order of the positions; unused ones are H or OH. Bridge positions count the residues as written; N and C are the ends. Square brackets hold non-standard residues; d marks the D form. * marks the point of attachment. C20 diacid = O=C(O)CCCCCCCCCCCCCCCCCCC(=O)*; γGlu = O=C(O)[C@H](CCC(=O)[*:2])N[*:1]; Hyp = O=C(O)[C@@H]1C[C@@H](O)CN1; NMeI = CC[C@H](C)[C@H](NC)C(=O)O; Aad = N[C@@H](CCCC(=O)O)C(=O)O; Orn = NCCC[C@H](N)C(=O)O; Sar = CNCC(=O)O

Tests used:
[1] = biological target: recombinant human calcitonin receptor (hCT-R) (human), P30988; test: cell-based or functional assay
Chain of recombinant human calcitonin receptor (hCT-R) (human), P30988 (P30988 25-474): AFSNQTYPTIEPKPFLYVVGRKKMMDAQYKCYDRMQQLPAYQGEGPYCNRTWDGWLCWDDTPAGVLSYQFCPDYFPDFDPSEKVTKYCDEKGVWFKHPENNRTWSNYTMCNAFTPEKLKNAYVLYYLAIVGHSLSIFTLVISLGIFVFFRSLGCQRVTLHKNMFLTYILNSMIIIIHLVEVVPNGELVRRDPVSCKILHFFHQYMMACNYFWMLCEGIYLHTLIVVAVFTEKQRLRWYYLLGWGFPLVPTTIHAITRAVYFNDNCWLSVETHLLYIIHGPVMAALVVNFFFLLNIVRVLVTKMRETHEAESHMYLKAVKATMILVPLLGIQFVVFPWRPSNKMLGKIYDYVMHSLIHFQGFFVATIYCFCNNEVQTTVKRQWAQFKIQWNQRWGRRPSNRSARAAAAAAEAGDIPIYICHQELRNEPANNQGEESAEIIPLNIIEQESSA

[2] = biological target: recombinant human amylin 3 receptor (hAMYR3) (human), P30988; test: cell-based or functional assay
Chain of recombinant human amylin 3 receptor (hAMYR3) (human), P30988 (P30988 25-474, chain 1 of 2): as the sequence (P30988 25-474) above
Chain of recombinant human amylin 3 receptor (hAMYR3) (human), P30988 (O60896 24-148, chain 2 of 2, further chain): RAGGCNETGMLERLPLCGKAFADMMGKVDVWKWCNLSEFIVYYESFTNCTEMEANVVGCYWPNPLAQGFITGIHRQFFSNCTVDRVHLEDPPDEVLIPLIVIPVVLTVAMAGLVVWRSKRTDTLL

hCT-R EC50 [nM] (cAMP formation, 1321N1 cells expressing hCT-R) [1]: 0.026 nM
hAMYR3 EC50 [nM] (cAMP formation, 1321N1 cells expressing hAMYR3) [2]: 0.007 nM
B2: Compound 36 (peptide)
peptide: {C20 diacid-γGlu}-RDGTATKATERLA[Aad]FLQRSSF[Sar]A[NMeI]LSSTETGSNT[Hyp]-NH2
modifications: lactam 2-7
SMILES: CC[C@H](C)[C@@H](C(=O)N[C@@H](CC(C)C)C(=O)N[C@@H](CO)C(=O)N[C@@H](CO)C(=O)N[C@H](C(=O)N[C@@H](CCC(=O)O)C(=O)N[C@H](C(=O)NCC(=O)N[C@@H](CO)C(=O)N[C@@H](CC(N)=O)C(=O)N[C@H](C(=O)N1C[C@H](O)C[C@H]1C(N)=O)[C@@H](C)O)[C@@H](C)O)[C@@H](C)O)N(C)C(=O)[C@H](C)NC(=O)CN(C)C(=O)[C@H](Cc1ccccc1)NC(=O)[C@H](CO)NC(=O)[C@H](CO)NC(=O)[C@H](CCCNC(=N)N)NC(=O)[C@H](CCC(N)=O)NC(=O)[C@H](CC(C)C)NC(=O)[C@H](Cc1ccccc1)NC(=O)[C@H](CCCC(=O)O)NC(=O)[C@H](C)NC(=O)[C@H](CC(C)C)NC(=O)[C@H](CCCNC(=N)N)NC(=O)[C@H](CCC(=O)O)NC(=O)[C@@H](NC(=O)[C@H](C)NC(=O)[C@@H]1CCCCNC(=O)C[C@H](NC(=O)[C@H](CCCNC(=N)N)NC(=O)CC[C@H](NC(=O)CCCCCCCCCCCCCCCCCCC(=O)O)C(=O)O)C(=O)NCC(=O)N[C@@H]([C@@H](C)O)C(=O)N[C@@H](C)C(=O)N[C@@H]([C@@H](C)O)C(=O)N1)[C@@H](C)O

hCT-R EC50 [nM] (cAMP formation, 1321N1 cells expressing hCT-R) [1]: 0.206 nM
hAMYR3 EC50 [nM] (cAMP formation, 1321N1 cells expressing hAMYR3) [2]: 0.063 nM
B5: Compound 34 (peptide)
peptide: {C20 diacid-γGlu}-RDGTATKATERLA[Aad]FLQRSSF[Sar]A[NMeI]PSSTEVGSNT[Hyp]-NH2
modifications: lactam 2-7
SMILES: CC[C@H](C)[C@@H](C(=O)N1CCC[C@H]1C(=O)N[C@@H](CO)C(=O)N[C@@H](CO)C(=O)N[C@H](C(=O)N[C@@H](CCC(=O)O)C(=O)N[C@H](C(=O)NCC(=O)N[C@@H](CO)C(=O)N[C@@H](CC(N)=O)C(=O)N[C@H](C(=O)N1C[C@H](O)C[C@H]1C(N)=O)[C@@H](C)O)C(C)C)[C@@H](C)O)N(C)C(=O)[C@H](C)NC(=O)CN(C)C(=O)[C@H](Cc1ccccc1)NC(=O)[C@H](CO)NC(=O)[C@H](CO)NC(=O)[C@H](CCCNC(=N)N)NC(=O)[C@H](CCC(N)=O)NC(=O)[C@H](CC(C)C)NC(=O)[C@H](Cc1ccccc1)NC(=O)[C@H](CCCC(=O)O)NC(=O)[C@H](C)NC(=O)[C@H](CC(C)C)NC(=O)[C@H](CCCNC(=N)N)NC(=O)[C@H](CCC(=O)O)NC(=O)[C@@H](NC(=O)[C@H](C)NC(=O)[C@@H]1CCCCNC(=O)C[C@H](NC(=O)[C@H](CCCNC(=N)N)NC(=O)CC[C@H](NC(=O)CCCCCCCCCCCCCCCCCCC(=O)O)C(=O)O)C(=O)NCC(=O)N[C@@H]([C@@H](C)O)C(=O)N[C@@H](C)C(=O)N[C@@H]([C@@H](C)O)C(=O)N1)[C@@H](C)O

hCT-R EC50 [nM] (cAMP formation, 1321N1 cells expressing hCT-R) [1]: 0.066 nM
hAMYR3 EC50 [nM] (cAMP formation, 1321N1 cells expressing hAMYR3) [2]: 0.028 nM
Binder: {C20 diacid-γGlu}-RDGTATKATERLA[Aad]FLQRSSF[Sar]A[NMeI]LSSTEVGSNT[Hyp]-NH2 (lactam 2-7) [Compound 35]

The next lines start with the binder.

B1: Compound 33 (peptide)
peptide: {C20 diacid-γGlu}-RDGTATKATERLA[Aad]FLQRANF[Sar]A[NMeI]LSSTEVGSNT[Hyp]-NH2
modifications: lactam 2-7
SMILES: CC[C@H](C)[C@@H](C(=O)N[C@@H](CC(C)C)C(=O)N[C@@H](CO)C(=O)N[C@@H](CO)C(=O)N[C@H](C(=O)N[C@@H](CCC(=O)O)C(=O)N[C@H](C(=O)NCC(=O)N[C@@H](CO)C(=O)N[C@@H](CC(N)=O)C(=O)N[C@H](C(=O)N1C[C@H](O)C[C@H]1C(N)=O)[C@@H](C)O)C(C)C)[C@@H](C)O)N(C)C(=O)[C@H](C)NC(=O)CN(C)C(=O)[C@H](Cc1ccccc1)NC(=O)[C@H](CC(N)=O)NC(=O)[C@H](C)NC(=O)[C@H](CCCNC(=N)N)NC(=O)[C@H](CCC(N)=O)NC(=O)[C@H](CC(C)C)NC(=O)[C@H](Cc1ccccc1)NC(=O)[C@H](CCCC(=O)O)NC(=O)[C@H](C)NC(=O)[C@H](CC(C)C)NC(=O)[C@H](CCCNC(=N)N)NC(=O)[C@H](CCC(=O)O)NC(=O)[C@@H](NC(=O)[C@H](C)NC(=O)[C@@H]1CCCCNC(=O)C[C@H](NC(=O)[C@H](CCCNC(=N)N)NC(=O)CC[C@H](NC(=O)CCCCCCCCCCCCCCCCCCC(=O)O)C(=O)O)C(=O)NCC(=O)N[C@@H]([C@@H](C)O)C(=O)N[C@@H](C)C(=O)N[C@@H]([C@@H](C)O)C(=O)N1)[C@@H](C)O
hCT-R EC50 [nM] (cAMP formation, 1321N1 cells expressing hCT-R) [1]: 0.019 nM
hAMYR3 EC50 [nM] (cAMP formation, 1321N1 cells expressing hAMYR3) [2]: 0.009 nM

B3: Compound 32 (peptide)
peptide: {C20 diacid-γGlu}-RDGTATKATERLA[Aad]FLQRGGF[Sar]A[NMeI]LSSTEVGSNT[Hyp]-NH2
modifications: lactam 2-7
SMILES: CC[C@H](C)[C@@H](C(=O)N[C@@H](CC(C)C)C(=O)N[C@@H](CO)C(=O)N[C@@H](CO)C(=O)N[C@H](C(=O)N[C@@H](CCC(=O)O)C(=O)N[C@H](C(=O)NCC(=O)N[C@@H](CO)C(=O)N[C@@H](CC(N)=O)C(=O)N[C@H](C(=O)N1C[C@H](O)C[C@H]1C(N)=O)[C@@H](C)O)C(C)C)[C@@H](C)O)N(C)C(=O)[C@H](C)NC(=O)CN(C)C(=O)[C@H](Cc1ccccc1)NC(=O)CNC(=O)CNC(=O)[C@H](CCCNC(=N)N)NC(=O)[C@H](CCC(N)=O)NC(=O)[C@H](CC(C)C)NC(=O)[C@H](Cc1ccccc1)NC(=O)[C@H](CCCC(=O)O)NC(=O)[C@H](C)NC(=O)[C@H](CC(C)C)NC(=O)[C@H](CCCNC(=N)N)NC(=O)[C@H](CCC(=O)O)NC(=O)[C@@H](NC(=O)[C@H](C)NC(=O)[C@@H]1CCCCNC(=O)C[C@H](NC(=O)[C@H](CCCNC(=N)N)NC(=O)CC[C@H](NC(=O)CCCCCCCCCCCCCCCCCCC(=O)O)C(=O)O)C(=O)NCC(=O)N[C@@H]([C@@H](C)O)C(=O)N[C@@H](C)C(=O)N[C@@H]([C@@H](C)O)C(=O)N1)[C@@H](C)O
hCT-R EC50 [nM] (cAMP formation, 1321N1 cells expressing hCT-R) [1]: 0.006 nM
hAMYR3 EC50 [nM] (cAMP formation, 1321N1 cells expressing hAMYR3) [2]: 0.005 nM

B4: Compound 4 (peptide)
peptide: {C20 diacid-γGlu-γGlu}-RDGTAT[Orn]ATERLAHFLQRSSF[Sar]A[NMeI]LSSTEVGSNT[Hyp]-NH2
modifications: lactam 2-7
SMILES: CC[C@H](C)[C@@H](C(=O)N[C@@H](CC(C)C)C(=O)N[C@@H](CO)C(=O)N[C@@H](CO)C(=O)N[C@H](C(=O)N[C@@H](CCC(=O)O)C(=O)N[C@H](C(=O)NCC(=O)N[C@@H](CO)C(=O)N[C@@H](CC(N)=O)C(=O)N[C@H](C(=O)N1C[C@H](O)C[C@H]1C(N)=O)[C@@H](C)O)C(C)C)[C@@H](C)O)N(C)C(=O)[C@H](C)NC(=O)CN(C)C(=O)[C@H](Cc1ccccc1)NC(=O)[C@H](CO)NC(=O)[C@H](CO)NC(=O)[C@H](CCCNC(=N)N)NC(=O)[C@H](CCC(N)=O)NC(=O)[C@H](CC(C)C)NC(=O)[C@H](Cc1ccccc1)NC(=O)[C@H](Cc1c[nH]cn1)NC(=O)[C@H](C)NC(=O)[C@H](CC(C)C)NC(=O)[C@H](CCCNC(=N)N)NC(=O)[C@H](CCC(=O)O)NC(=O)[C@@H](NC(=O)[C@H](C)NC(=O)[C@@H]1CCCNC(=O)C[C@H](NC(=O)[C@H](CCCNC(=N)N)NC(=O)CC[C@H](NC(=O)CC[C@H](NC(=O)CCCCCCCCCCCCCCCCCCC(=O)O)C(=O)O)C(=O)O)C(=O)NCC(=O)N[C@@H]([C@@H](C)O)C(=O)N[C@@H](C)C(=O)N[C@@H]([C@@H](C)O)C(=O)N1)[C@@H](C)O
hCT-R EC50 [nM] (cAMP formation, 1321N1 cells expressing hCT-R) [1]: 0.16 nM
hAMYR3 EC50 [nM] (cAMP formation, 1321N1 cells expressing hAMYR3) [2]: 0.092 nM
